Measured values as given in the DeepSol protein solubility set.

Experiment: soluble on expression in E. coli; label from the status in PepcDB or PDB records

Row | Sequence | soluble on expression in E. coli
1 | MNNQKQQKPTLSGQRFKTRKRDEKERFDPTQFQDCIIQGLTETGTDLEAVAKFLDASGAKLDYRRYAETLFDILVAGGMLAPGGTLADDMMRTDVCVFAAQEDLETMQAFAQVFNKLIRRYKYLEKGFEDEVKKLLLFLKGFSESERNKLAMLTGVLLANGTLNASILNSLYNENLVKEGVSAAFAVKLFKSWINEKDINAVAASLRKVSMDNRLMELFPANKQSVEHFTKYFTEAGLKELSEYVRNQQTIGARKELQKELQEQMSRGDPFKDIILYVKEEMKKNNIHFMKAFQKIVVLFYKAEVLSEEPILKWYKDAHVAKGKSVFLEQMKKFVEWLKNAEEESESEAEEGD | not soluble
2 | MNNSKTNQQMNTSMGYPLTVYDECNKFQLIVPTLDANIMLWCIGQLSLLNDSNGCKHLFWQPNDKSNVRILLNNYDYGHLFKYLQCQRKCSVYIGEGTLKKYNLTISTSFDNFLDLTPSEEKESLCREDAHEDPVSPKAGSEEEISPNSTSNVVVSRECLDNFMKQLLKLEESLNKLELEQKVTNKEPNHRISGTIDIPEDRSELVNFFTELKTVKQLEDVFQRYHDYERLSQECDSKTEIASDHSKKETKIEVEPPNERSLQITMNQRDNSLYFQLFNNTNSVLAGNCKLKFTDAGDKPTTQIIDMGPHEIGIKEYKEYRYFPYALDLEAGSTIEIENQYGEVIFLGKYGSSPMINLRPPSRLSAESLQASQEPFYSFQIDTLPELDDSSIISTSISLSYDGDDNEKALTWEEL | soluble
3 | MNNTDPTSFESILAGVAKLRKEKSGADTTGSQSLEIDASKLQQQEPQTSRRINSNQVINAFNQQKPEEWTDSKATDDYNRKRPFRSTRPGKTVLVNTTQKENPLLNHLKSTNWRYVSSTGINMIYYDYLVRGRSVLFLTLTYHKLYVDYISRRMQPLSRNENNILIFIVDDNNSEDTLNDITKLCMFNGFTLLLAFNFEQAAKYIEYLNL | soluble
4 | MNPALESLLADADLCVKCGLCSPHCPTYRQTADENESPRGRIALIQGWATGRLSLTAALRGPLDDCLLCRNCEAVCPAKVPYSRLVDRFRAETGQRRKPLEHHHHHH | not soluble
5 | MNPEEQIVTWLISLGVLESPKKTICDPEEFLKSSLKNGVVLCKLINRLMPGSVEKFCLDPQTEADCINNINDFLKGCATLQVEIFDPDDLYSGVNFSKVLSTLLAVNKATEDQLSERPCGRSSSLSAANTSQTNPQGAVSSTVSGLQRQSKTVEMTENGSHQLIVKARFNFKQTNEDELSVCKGDIIYVTRVEEGGWWEGTLNGRTGWFPSNYVREIKSSERPLSPKAVKGFETAPLTKNYYTVVLQNILDTEKEYAKELQSLLVTYLRPLQSNNNLSTVEVTSLLGNFEEVCTFQQTLCQALEECSKFPENQHKVGGCLLSLMPHFKSMYLAYCANHPSAVNVLTQHSDELEQFMENQGASSPGILILTTNLSKPFMRLEKYVTLLQELERHMEDTHPDHQDILKAIVAFKTLMGQCQDLRKRKQLELQILSEPIQAWEGEDIKNLGNVIFMSQVMVQYGACEEKEERYLMLFSNVLIMLSASPRMSGFIYQGKIPIAGTVVTRLDEIEGNDCTFEITGNTVERIVVHCNNNQDFQEWLEQLNRLIRGPASCSSLSKTSSSSCSAHSSFSSTGQPRGPLEPPQIIKPWSLSCLRPAPPLRPSAALGYKERMSYILKESSKSPKTMKKFLHKRKTERKPSEEEYVIRKSTAALEEDAQILKVIEAYCTSANFQQGHGSSTRKDSIPQVLLPEEEKLIIEETRSNGQTIMEEKSLVDTVYALKDEVRELKQENKRMKQCLEEELKSRRDLEKLVRRLLKQTDECIRGESSSKTSILP | soluble
6 | MNPLFFLASPFLYLTYLIYYPNKGSFVSKPRNLQKMSSEPFKNVYLLPQTNQLLGLYTIIRNKNTTRPDFIFYSDRIIRLLVEEGLNHLPVQKQIVETDTNENFEGVSFMGKICGVSIVRAGESMEQGLRDCCRSVRIGKILIQRDEETALPKLFYEKLPEDISERYVFLLDPMLATGGSAIMATEVLIKRGVKPERIYFLNLICSKEGIEKYHAAFPEVRIVTGALDRGLDENKYLVPGLGDFGDRYYCV | not soluble
7 | MNPLHLETLLAIIDEGSFEDAAFALGISPSAVSQRIKALERETGRVVVRRTSPVTATDAGEVLVQSARRMALLQAETNAQLRGRIERIPLSVAVNADSLATWFRRVMASVAEMDNATLHMRIEDESHSLSLLRRGDVLGAVTGEKTPVSGCDSIALGAFRYFAVASPKLLDRYTIDGAVDWERMPVLRFGPRDGLQDRDIKRRLGEVPAGRRVNEIPSSEAFMEAARVGLGWAMLPDIQALPLLDSGEVVMLDSEVHEVPLYWQRWRLESPALERLTQAVVDAALEGLHPLSA | not soluble
8 | MNPLLFNDRTLKGSGVLARVTPTGTQYVASVVAAAFSSHFADIKPPKERKDHQLTTISTVTLRRLMLETLQLDKQLVTTTTSDGLLRITVQNISVSSSAVLSGELREIKLQDNVTFRTANLRIDTAIRIMKNAGGNPALKMESCKIVTQGIKLVTKPMDPRNGKSLADAIANDANTMFSDLICSKIDHIVSNRVNQRFALLSSRISLEDSKNFDIVKIIMQAEERLKRLVRQNMLRSNKTIRRNVHAHNARRVSRDPVRGKRQADEDKFHLILNSFNFSRADSLMLDYSMLSPPSLTSRGIELQTSGEVFQKGHVTPFGAGPIFLPRIPNPSQMLQIVVSDFVPNSLMFHGHRIKLFDTRIDWMTPQFGPVMRTTCDLSTGSLFCIGDLFPALREMLPDRNVAFLFTTLRAPAVIMQPEEKGGIHFSLRGLIRLVSDRNEPIGEMEIRIEALMKMKLTSKSVKGKVTIEEIQFTSRSPRILLQEELDDAGFLSREILQRMVNDILRQGIPIPIHPLFKLVKPKLTLLSRSMLLETNFLLNEHIIAQLTAEALVA | not soluble
9 | MNPSMKQKQEEIKENIKNSSVPRRTLKMIQPSASGSLVGRENELSAGLSKRKHRNDHLTSTTSSPGVIVPESSENKNLGGVTQESFDLMIKENPSSQYWKEVAEKRRKALYEALKENEKLHKEIEQKDNEIARLKKENKELAEVAEHVQYMAELIERLNGEPLDNFESLDNQEFDSEEETVEDSLVEDSEIGTCAEGTVSSSTDAKPCI | soluble
10 | MNPVKNRSEVLFIYDVKWANPNGDPLDENRPRFDEETSRLFVTDVRLKRTVRDYLAECYDETLWVTGEAVVPEDRVKELGIKDVNDACQKCIDIRLFGAVIPQSKKGAMESSITGPVQFRYGTSLHRVKLMTIQGTAAFATENSKQRSFREDQVVPYALIAFYGVINQNSAKFTGLTEEDVSKLLEGIWMGTKNLITRSKMEHNPRLLMRVVYKEGVNYHSGELDYLVKVVSEKEDEEIRDISELKLDVTELKQVLESLKDKIERIEYSVDNRLKLAENGEEKPFEEIFGGFQLVKLEW | not soluble
11 | MNQIAIQETIQRLINQQVVPGVAWGTITEDSLSEQYTGFLGNTGPFARQKISSASLYDLASLTKVIGTTNRMLQLIDTNQLTFSTTVGEILPDYQGLSCSIGELLLHQSGLPADVVDKKNVTKKSLQEIILTHSLSERGKTTYSDLGYYLLGEIIQVLDRCSLEESFQTYVFQPMNLQHTSFTVSDFAQAVPTEITKQRGVIQGVVHDSKAYQLKAPIGSAGLFATLPDLLTFVQCFMNNRYPSGKPLFSEKMFTALWSMNQGGRTFGWEVKKTQAGADYLYHTGFTGTAIGMKKETKEALILLTNRIHPTREERGFLKARTKIYQQYF | not soluble
12 | MNRGLDPMHVGNARYVKNDDLPKTVPVFPLPGALLLPEGHLPLNIFEPRYLAMIDTALASHRLIGMVQPALHVIEAGIEGGPLSAVGCLGRITSFSETGDGRYVISLTGVCRFRLLEEVAGSEPYRSFRHAPFGADLSGEYDEEAVDRENLLRVFRAFLDANQLEADWESVERAGNRVLVNSLSMMSPFGPAEKQALLEAPDLKTRAETLIAITEIVLAQGSGEGGTVLQLEHHHHHH | not soluble
13 | MNRILSMIEQMEPGVVIFNDDLTISSVSSMVFMIFGHIPRERIFAGDLLDIHDEAAREKVKETLRLARQAQRHIPLSLKFITSEGHDRYLLVKLITVAERDPASEKICALFYDITPFIVAERKLTRVPVTSRGDIHLLRPEEIVYLKADNIYSLIYTEAGEFHSDLSLGAMEKRLSEDIFYRIHRSYLVNLAKVRKVHRESSECTVAAGGGEVRLPVSRDKMQRFLTDLGLK | not soluble
14 | MNSAWALLRLASPQLPIGGYSYSQGLEMAVEQSIVIDPQTAGRWIGDQLLLNLARFEAPLLLAHCEAAAVGDWGQLLQVSEQHRASRETRELHQESRQMGYSLQQLLNGLPELDRDARRFLEQTTEPHLALGWALAARTWRISPQDALAAWLWSWLENQLAVLMKTLPLGQQAAQRLTSELLPLLQQAQVNASAQDTHPAGSAAFGLALASMAHERQYSRLFRS | soluble
15 | MNSEIELPVQKQLEAYNARDIDAFMAWWADDCQYYAFPATLLAGNAAEIRVRHIERFKEPDLYGELLTRVIVGNVVIDHETVTRNFPEGKGEVDVACIYEVENGRIAKAWFKIGEPRIVSQKS | soluble
16 | MNSLVRRSAQQLSLWRTYCIKHNASEAASPGRNAGRPNYEEFIGRHQRQAQCSIVVQVSSEKSYEELYNYCSSFGSIMGAHHYCVRQDETLHYILLEYATSDEAAAAIGAGVTNGELSGVPVRSPFLWFRAAGGGRRSPKLVANTAPALLSLDGTRQVDQRHLLGLLRGAADIEEQVQQLYEHTRLNELGIRMRFLAALQVQQAIAGMFPAAQAQPFGSSVNGFGRMGCDLDLILRFDSDMGAKIPLEAAVPSRLVYHTKENLSNGRSQTQRHMECFGDMLHLFLPGVCHVRRILQARVPIIKYHHEHLDLEVDLSMSNLTGFYMSELLYMFGEMDPRVRPLTFTIRRWAQTCGLTNPSPGRWISNFSLTCLVMFFLQQLRQPILPTIGALAKAAEPGDSRVTEDGINCTFTRNVDRLGFRSRNQSSLSELLLQFFEFYSQFDFHNRAISLNEGKPLSKPDHSAMYIVNPLEQLLNVSKNVSLEECERLRIEVRNAAWVLESEVENASVPEGDGQELSCGLLNLFKHPEKAVIRPNMFFKPRMVEVSDLFEQKEAGATSSSTPPTPAITYKSASVRQQVQSIKAATRSELKQLRGSGSSVPTSSPNNRRRS | not soluble
17 | MNSRSTAEITDYLNEKITKKDALELFSLPIHAVGRIADEIRKVKCGDLVTFVNDTNINYTNICLSKCRFCAFYAREKGYVLSHEEILRKVGYAVKMGATQIMLQGGMNPDLGLEWFEELFRKIKARFSSVHIHSLSPPEIVFLAKLERSSIREVLDRLKAAGLDSLPGGGAEILVDSVRRKISPNKCSSDEWLRVMETAHSLNMPTTATMMFGHVESDGDIVEHLIKIRELQEKTGGFTAFIPWTFQPGNTELYAEIKRPVSPLRYLQVLAISRIVLNNFRNIQASWLTQGFEIATLSLFFGANDFGGTMLEENVVRATGKDFRPAKIEEIVKAVKAVGRPVALRDTYYNILEWF | not soluble
18 | MNSTNSGPPDSGSATGVVPTPDEIASLLQVEHLLDQRWPETRIDPSLTRISALMDLLGSPQRSYPSIHIAGTNGKTSVARMVDALVTALHRRTGRTTSPHLQSPVERISIDGKPISPAQYVATYREIEPLVALIDQQSQASAGKGGPAMSKFEVLTAMAFAAFADAPVDVAVVEVGMGGRWDATNVINAPVAVITPISIDHVDYLGADIAGIAGEKAGIITRAPDGSPDTVAVIGRQVPKVMEVLLAESVRADASVAREDSEFAVLRRQIAVGGQVLQLQGLGGVYSDIYLPLHGEHQAHNAVLALASVEAFFGAGAQRQLDGDAVRAGFAAVTSPGRLERMRSAPTVFIDAAHNPAGASALAQTLAHEFDFRFLVGVLSVLGDKDVDGILAALEPVFDSVVVTHNGSPRALDVEALALAAGERFGPDRVRTAENLRDAIDVATSLVDDAAADPDVAGDAFSRTGIVITGSVVTAGAARTLFGRDPQ | soluble
19 | MNTAHGSDVTRPLDWLVSNFASDVPGVSHAVLVSADGLLMAASAHLPIDRAEQLAAVTSGLASLSAGVSRLFEGGGVLQSVVEMQHGYLLLMSVGDGSHLATLTDAECDIGQVGYEMAILVDRVGASVQATARTPQGL | not soluble
